Molecular target: T1, Full-length human His-tagged angiotensin-converting enzyme 2 (ACE2) (human, UniProt Q9BYF1)
T1 construct: also called hACE2
Experiment: cryo-EM structure
Settings: both partners purified

T1 sequence (Q9BYF1 18-805): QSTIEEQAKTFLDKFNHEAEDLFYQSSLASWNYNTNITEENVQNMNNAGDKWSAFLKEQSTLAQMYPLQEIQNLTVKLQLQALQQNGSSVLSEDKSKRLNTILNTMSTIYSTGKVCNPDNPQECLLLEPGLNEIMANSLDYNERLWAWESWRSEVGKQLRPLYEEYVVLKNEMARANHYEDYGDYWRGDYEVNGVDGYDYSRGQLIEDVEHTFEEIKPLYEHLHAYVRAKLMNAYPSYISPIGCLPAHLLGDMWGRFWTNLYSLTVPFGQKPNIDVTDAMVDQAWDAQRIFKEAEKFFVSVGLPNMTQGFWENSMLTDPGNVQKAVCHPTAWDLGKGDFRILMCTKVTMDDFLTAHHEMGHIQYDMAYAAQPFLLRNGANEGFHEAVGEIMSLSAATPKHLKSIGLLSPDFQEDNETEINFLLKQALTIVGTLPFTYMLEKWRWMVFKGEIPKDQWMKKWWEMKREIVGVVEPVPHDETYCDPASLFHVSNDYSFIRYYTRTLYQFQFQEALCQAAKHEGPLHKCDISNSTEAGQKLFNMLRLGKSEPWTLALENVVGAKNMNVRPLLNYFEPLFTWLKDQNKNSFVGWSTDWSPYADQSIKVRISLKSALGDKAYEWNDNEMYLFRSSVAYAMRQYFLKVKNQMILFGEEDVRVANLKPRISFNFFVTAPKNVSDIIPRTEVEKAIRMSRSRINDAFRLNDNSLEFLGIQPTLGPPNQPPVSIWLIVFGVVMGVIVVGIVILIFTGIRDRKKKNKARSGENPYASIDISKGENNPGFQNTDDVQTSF

B1: Full-length human Flag-tagged SIT1 (SLC6A20) (natural protein)
chain: MEKARPLWANSLQFVFACISYAVGLGNVWRFPYLCQMYGGGSFLVPYIIMLIVEGMPLLYLELAVGQRMRQGSIGAWRTISPYLSGVGVASVVVSFFLSMYYNVINAWAFWYLFHSFQDPLPWSVCPLNGNHTGYDEECEKASSTQYFWYRKTLNISPSLQENGGVQWEPALCLLLAWLVVYLCILRGTESTGKVVYFTASLPYCVLIIYLIRGLTLHGATNGLMYMFTPKIEQLANPKAWINAATQIFFSLGLGFGSLIAFASYNEPSNNCQKHAIIVSLINSFTSIFASIVTFSIYGFKATFNYENCLKKVSLLLTNTFDLEDGFLTASNLEQVKGYLASAYPSKYSEMFPQIKNCSLESELDTAVQGTGLAFIVYTEAIKNMEVSQLWSVLYFFMLLMLGIGSMLGNTAAILTPLTDSKIISSHLPKEAISGLVCLVNCAIGMVFTMEAGNYWFDIFNDYAATLSLLLIVLVETIAVCYVYGLRRFESDLKAMTGRAVSWYWKVMWAGVSPLLIVSLFVFYLSDYILTGTLKYQAWDASQGQLVTKDYPAYALAVIGLLVASSTMCIPLAALGTFVQRRLKRGDADPVA
Q: Does B1 bind?
A: Result: binds

— PMC9667838 (Cell Discovery, 2022)
